Five variants from FireProtDB (doi:10.1016/0022-2836(92)90560-7) can be followed below.

To fix the notation:
B1: Ribonuclease, P00648 (parent)
chain: MMKMEGIALKKRLSWISVCLLVLVSAAGMLFSTAAKTETSSHKAHTEAQVINTFDGVADYLQTYHKLPDNYITKSEAQALGWVASKGNLADVAPGKSIGGDIFSNREGKLPGKSGRTWREADINYTSGFRNSDRILYSSDWLIYKTTDHYQTFTKIR

Variants of B1 are the subject of this series. The note with it: Bacillus amyloliquefaciens, 25 °C, Urea, Fluorescence, MES/Tris 150 mM/150 mM/, NaCl 1 M, structure 1BNI, whole UniProt chain shown.

Regarding MMKMEGIALKKRLSWISVCLLVLVSAAGMLFSTAAKTETSSHKAHTEAQVINTFDGVADYLQTYHKLPDNYITKSEAQALGWVASKGNLADVAPGKSIGGDIFSNREGKLPGKSGRTWREADINYTSGFRNSDRILYSSDFLIYKTTDHYQTFTKIR [W141F], for the setting “pH 5.8”, the “ddG of mutation (higher = less stable)” value amounted to 1.06 kcal/mol, the denaturant m value came to 1.89 kcal/mol/M, the “denaturant midpoint (higher = more stable)” value (shortened to “denaturant midpoint”) came out at 5.07 M and the unfolding free energy was 9.94 kcal/mol. Also, for the setting “pH 9”, the “ddG of mutation (higher = less stable)” value worked out at 0.6 kcal/mol, the denaturant m value was 2.01 kcal/mol/M, the “denaturant midpoint” value was found to be 4.5 M and the unfolding free energy was determined as 8.81 kcal/mol.

For MMKMEGIALKKRLSWISVCLLVLVSAAGMLFSTAAKTETSSHKAHTEAQVINTFDGVADYLQTYHKLPDNYITKSEAQALGWVASKGNLADVAPGKSIGGDIFSNREGKLPGKSGRTWREADINYTSGFRNSDRILYSSDYLIYKTTDHYQTFTKIR [W141Y], under “pH 5.8”, the “ddG of mutation (higher = less stable)” value amounted to 1.27 kcal/mol, the denaturant m value was 1.98 kcal/mol/M, the “denaturant midpoint” value came out at 4.96 M and the unfolding free energy was 9.73 kcal/mol. Further, where the note is “pH 9”, the “ddG of mutation (higher = less stable)” value worked out at 0.99 kcal/mol, the denaturant m value was determined as 2 kcal/mol/M, the “denaturant midpoint” value amounted to 4.29 M and the unfolding free energy is 8.42 kcal/mol.

With MMKMEGIALKKRLSWISVCLLVLVSAAGMLFSTAAKTETSSHKAHTEAQVINTFDGVADYLQTYHKLPDNYITKSEAQALGWVASKGNLADVAPGKSIGGDIFSNREGKLPGKSGRTWREADINYTSGFRNSDRILYSSDLLIYKTTDHYQTFTKIR [W141L], for the setting “pH 5.8”, the “ddG of mutation (higher = less stable)” value worked out at 1.59 kcal/mol, the denaturant m value came out at 2 kcal/mol/M, the “denaturant midpoint” value amounted to 4.8 M and the unfolding free energy was determined as 9.41 kcal/mol. Moreover, for the setting “pH 9”, the “ddG of mutation (higher = less stable)” value was determined as 0.66 kcal/mol, the denaturant m value stood at 1.98 kcal/mol/M, the “denaturant midpoint” value is 4.47 M and the unfolding free energy is 8.75 kcal/mol.

On to MMKMEGIALKKRLSWISVCLLVLVSAAGMLFSTAAKTETSSHKAHTEAQVINTFDGVADYLQTYGKLPDNYITKSEAQALGWVASKGNLADVAPGKSIGGDIFSNREGKLPGKSGRTWREADINYTSGFRNSDRILYSSDWLIYKTTDHYQTFTKIR [H65G], for which, under “pH 5.8”, the “ddG of mutation (higher = less stable)” value came out at 0.98 kcal/mol, the denaturant m value stood at 1.85 kcal/mol/M, the “denaturant midpoint” value was 5.12 M and the unfolding free energy amounted to 10 kcal/mol. Further, where the note is “pH 9”, the “ddG of mutation (higher = less stable)” value is -0.51 kcal/mol, the denaturant m value is 2.07 kcal/mol/M, the “denaturant midpoint” value was 5.06 M and the unfolding free energy is 9.92 kcal/mol.

As to MMKMEGIALKKRLSWISVCLLVLVSAAGMLFSTAAKTETSSHKAHTEAQVINTFDGVADYLQTYGKLPDNYITKSEAQALGWVASKGNLADVAPGKSIGGDIFSNREGKLPGKSGRTWREADINYTSGFRNSDRILYSSDLLIYKTTDHYQTFTKIR [H65G W141L], where the note is “pH 9”, the denaturant m value amounted to 1.8 kcal/mol/M, the “denaturant midpoint” value was found to be 4.96 M and the unfolding free energy was 9.72 kcal/mol.
